Data on three substances can be found in article PMC9779223.

Data set [1] deals with P09493. Kind of data set: viscosity measurement; falling ball microviscometer, 20 °C; Tpm 1.0 mg/mL (15 µM) with TnT1 at molar ratio 1/1; 30 mM HEPES-Na pH 7.3, 100 mM NaCl, 4 mM DTT; excess viscosity over buffer. As to conditions: other: viscosity measurement.
Data set [2] concerns P09493. Kind of data set: viscosity measurement; falling ball microviscometer, 20 °C; Tpm 1.0 mg/mL (15 µM), without TnT1; 30 mM HEPES-Na pH 7.3, 100 mM NaCl, 4 mM DTT; excess viscosity over buffer as read-out of the end-to-end overlap junction of Tpm dimers. As to conditions: other: viscosity measurement.
Data set [3] concerns the target Human Tpm1.1 (α-Tpm) I284V (human) (UniProt P09493). Nature of the data set: ITC; MicroCal PEAQ-ITC, 25 °C; 30 mM HEPES-Na pH 7.3, 100 mM NaCl, 1 mM DTT; sample in the cell 30 to 60 µM, ligand in the syringe 200 to 700 µM; one set of binding sites. (In general: ITC needs no label: the signal is the heat of the interaction.)
Data set [4] deals with Human Tpm1.1 (α-Tpm) M281T (human) (UniProt P09493). Described as above.
For data set [5], the target named is Human Tpm1.1 (α-Tpm) WT (human) (UniProt P09493). The data set is described as above.
Data set [6] deals with Human Tpm1.1 (α-Tpm) K15N (human) (UniProt P09493). The description is as above.
Data set [7] has as its target Human Tpm1.1 (α-Tpm) M8R (human) (UniProt P09493). Described as above.
Data set [8] deals with Tropomyosin C-terminal fragment Tpm WT 134–284 (human) (UniProt P09493). The data set is described as above.
The target of data set [9] is Human Tpm1.1 (α-Tpm) A277V (human) (UniProt P09493). Described as above.
For data set [10], the target named is Premixed complex of Tpm WT 1–133 and Tpm WT 134–284 (human) (UniProt P09493). The description is as above.
Data set [11] addresses Premixed complex of TnT1 and Tpm WT 134–284 (human) (UniProt P09493). The description is as above.

Chain of Tropomyosin C-terminal fragment Tpm WT 134–284 (human) (P09493 134-284): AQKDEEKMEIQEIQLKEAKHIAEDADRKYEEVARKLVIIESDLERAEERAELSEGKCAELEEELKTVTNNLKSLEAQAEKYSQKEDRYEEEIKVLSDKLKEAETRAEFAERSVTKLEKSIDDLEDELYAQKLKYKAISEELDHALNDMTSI
Chain of Human Tpm1.1 (α-Tpm) K15N (human) (P09493 other isoform, or with tags, fused parts or gaps K15N | K15N): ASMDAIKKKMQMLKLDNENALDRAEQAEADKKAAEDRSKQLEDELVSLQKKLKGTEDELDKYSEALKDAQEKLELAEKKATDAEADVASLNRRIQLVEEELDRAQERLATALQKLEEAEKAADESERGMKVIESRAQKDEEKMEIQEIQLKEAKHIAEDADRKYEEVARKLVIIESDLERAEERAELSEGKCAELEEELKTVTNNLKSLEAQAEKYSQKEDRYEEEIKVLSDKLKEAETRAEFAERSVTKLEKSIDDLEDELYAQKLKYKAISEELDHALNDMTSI
Chain of Human Tpm1.1 (α-Tpm) WT (human) (P09493 other isoform, or with tags, fused parts or gaps): as the sequence (P09493 other isoform, or with tags, fused parts or gaps K15N | K15N) above, with N17K counted along it
Chain of Human Tpm1.1 (α-Tpm) M281T (human) (P09493 other isoform, or with tags, fused parts or gaps M281T | M281T): as the sequence (P09493 other isoform, or with tags, fused parts or gaps K15N | K15N) above, with N17K, M283T counted along it
Chain of Human Tpm1.1 (α-Tpm) A277V (human) (P09493 other isoform, or with tags, fused parts or gaps A277V | A277V): as the sequence (P09493 other isoform, or with tags, fused parts or gaps K15N | K15N) above, with N17K, A279V counted along it
Chain of Human Tpm1.1 (α-Tpm) M8R (human) (P09493 other isoform, or with tags, fused parts or gaps M8R): as the sequence (P09493 other isoform, or with tags, fused parts or gaps K15N | K15N) above, with M10R, N17K counted along it
Chain of Premixed complex of Tpm WT 1–133 and Tpm WT 134–284 (human) (P09493 other isoform, or with tags, fused parts or gaps, chain 1 of 2): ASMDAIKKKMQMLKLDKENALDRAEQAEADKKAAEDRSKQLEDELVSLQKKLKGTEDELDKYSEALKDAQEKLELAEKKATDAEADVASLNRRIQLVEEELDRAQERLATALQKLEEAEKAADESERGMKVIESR
Chain of Premixed complex of Tpm WT 1–133 and Tpm WT 134–284 (human) (P09493 134-284, chain 2 of 2): as the sequence (P09493 134-284) above
Chain of Human Tpm1.1 (α-Tpm) I284V (human) (P09493 other isoform, or with tags, fused parts or gaps I284V | I284V): as the sequence (P09493 other isoform, or with tags, fused parts or gaps K15N | K15N) above, with N17K, I286V counted along it

As for Human Tpm1.1 (α-Tpm) WT, the excess viscosity in the data set on P09493 [1] was found to be 0.992 ± 0.001 mPa·s; in the data set with P09493 [2] it was 0.125 mPa·s.
The term Kd denotes the constant that tells how readily two partners part at equilibrium. Low readings indicate higher affinity, high ones lower affinity. What is called stoichiometry N is a count of units in the complex or per binding partner. As to “Human adult cardiac troponin T fragment TnT1 (TnT1–158) (domain or fragment)”, the Kd was 1.89 µM in [3]; 1.52 µM in [4]; 0.91 µM in [5]; 1.3 µM in data set [6]; 1.9 µM in data set [7]; 1.9 µM in [8]. The Kd in data set [9] was 2.51 µM; in data set [10], 0.9 µM. The dH in [3] was -14.4 kcal/mol; in [4] it was -8.83 kcal/mol; in data set [5], -9.69 kcal/mol; in [6] it was -12.1 kcal/mol; in [7], 2.51 kcal/mol; in data set [8], 2.1 kcal/mol. In addition, the dH in data set [9] was -10.6 kcal/mol; in data set [10], -7.7 kcal/mol. Further, the stoichiometry N was found to be 0.775 in [3]; 0.857 in data set [4]; 0.629 in data set [5]; 1.05 in data set [6]; 1.15 in [7]; 1.06 in data set [8]. The stoichiometry N in data set [9] is 1.03; in [10], 0.69.
For the substance “Tropomyosin N-terminal fragment Tpm WT 1–133 (from UniProt P09493 1-133) (domain or fragment)”, in data set [11], the dissociation constant Kd came out at 1.7 µM, the dH was -6.5 kcal/mol and the stoichiometry N was 1.07.
